# According to PMC3967914:
# Target: MHF1 (CENP-S);MHF2 (CENP-X) (Homo sapiens;Homo sapiens, UniProt Q8N2Z9;A8MT69 1-138;1-81, |)
# Assay: X-ray crystallography
# Sequence of MHF1 (CENP-S);MHF2 (CENP-X) (Q8N2Z9 whole entry, chain 1 of 2): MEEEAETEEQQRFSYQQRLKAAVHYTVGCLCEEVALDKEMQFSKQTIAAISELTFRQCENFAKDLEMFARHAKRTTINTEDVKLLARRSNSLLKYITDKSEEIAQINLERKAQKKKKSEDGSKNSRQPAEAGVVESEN
# Sequence of MHF1 (CENP-S);MHF2 (CENP-X) (A8MT69 whole entry, chain 2 of 2): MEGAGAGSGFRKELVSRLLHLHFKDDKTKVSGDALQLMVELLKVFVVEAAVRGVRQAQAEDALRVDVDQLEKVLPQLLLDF
binder,measurement,value
26 bp dsDNA (crystal) (dsDNA) DNA 1: ATCAATATCCACCGGTGGATATTGAT DNA 2: ATCAATATCCACCGGTGGATATTGAT,binding result,binds
